Test results reported in US20190270793A1.

Molecular target: tau seeds in spinal cord homogenates of P301S transgenic mice (aggregated transgenic human tau) (human), P10636
Test: cell-based or functional assay

Sequence of tau seeds in spinal cord homogenates of P301S transgenic mice (aggregated transgenic human tau) (human), P10636 (P10636 other isoform, or with tags, fused parts or gaps P301S P301S): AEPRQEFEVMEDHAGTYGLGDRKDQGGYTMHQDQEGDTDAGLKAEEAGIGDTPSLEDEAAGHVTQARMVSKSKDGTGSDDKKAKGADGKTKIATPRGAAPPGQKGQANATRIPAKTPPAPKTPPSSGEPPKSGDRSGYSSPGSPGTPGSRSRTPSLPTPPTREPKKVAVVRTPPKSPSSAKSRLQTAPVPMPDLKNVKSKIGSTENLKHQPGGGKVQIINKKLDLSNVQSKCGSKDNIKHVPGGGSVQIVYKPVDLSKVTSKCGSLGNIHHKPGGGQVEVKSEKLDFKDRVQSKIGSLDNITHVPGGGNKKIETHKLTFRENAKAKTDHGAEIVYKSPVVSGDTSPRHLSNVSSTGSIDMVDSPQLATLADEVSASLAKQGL

B1: PT82 mAb, recombinantly expressed (mouse IgG2a/kappa) (antibody, V domains shown)
VH: EVKLEESGGGLVQPGGSMKLSCVASGFTFSNYWMNWIRQSPEKGLEWVAQIRLQSDNYATRYAESVKGRFTISRDESKTSVYLQMNNLRTEDTGIYYCTGGTTYWGQGTLVTVSA
VL: DIVMTQSQKFMSTSVGDRVSITCKASQNVGTAVAWYQQKPGQSPKLLIYSASIRYTGVPDRFTGSGSGTDFTLTINYMQSEDLADYFCQQFSSYPYTFGGGTKLEIK
Binder B1 has a Tau aggregate induction (K18 aggregate formation, FRET-positive HEK cells counted by FACS) of 3 nM.
